Measurements: PMC11865472
pKd: −log10 of the molar value.

biological target: biotin-TGF-β2 (minimally biotinylated TGF-β2) (human); experiment: SPR; BIAcore X100; minimally biotinylated TGF-β2 captured on a neutravidin CM5 chip, max 50 RU; zfBGO variants injected, 2-fold dilution series (500 or 1000 - 31.3 nM); 10 mM CHES, 150 mM NaCl, 3 mM EDTA, 0.01% P20, pH 8.6; 100 µl/min; 1:1 kinetic model; two consecutive repeats; conditions: not given

pKd	Substance
7.42	zebrafish betaglycan orphan domain (zfBGO), wild type (domain or fragment)
6.87	zfBGO K316A (domain or fragment)
6.76	zfBGO K319A (domain or fragment)
7.06	zfBGO L208A (domain or fragment)

biological target: inhibin A (InhA), mature heterodimer (UniProt P05111); experiment: SPR; TGF-β2 (b) or InhA (c) immobilised; BGZP-C mutants injected, 2-fold serial dilutions 500 - 15.6 nM; three consecutive repeats; conditions: not given
Sequence (P05111 233-366, chain 1 of 2): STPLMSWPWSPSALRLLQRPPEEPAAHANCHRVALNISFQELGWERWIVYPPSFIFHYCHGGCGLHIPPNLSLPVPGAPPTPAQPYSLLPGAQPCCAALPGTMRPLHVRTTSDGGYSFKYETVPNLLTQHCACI
Sequence (P08476 311-426, chain 2 of 2, further chain): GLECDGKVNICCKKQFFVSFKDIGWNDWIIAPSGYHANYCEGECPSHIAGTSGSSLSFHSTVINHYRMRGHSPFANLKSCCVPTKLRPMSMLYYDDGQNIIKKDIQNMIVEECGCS

pKd	Substance
5.97	BGZP-C I161A (domain or fragment)
6.09	BGZP-C I161Y (domain or fragment)
6.01	BGZP-C N82A (domain or fragment)
6.05	BGZP-C N82Y (domain or fragment)

biological target: TGF-β2 (growth factor domain, wild type) (human); experiment: SPR; TGF-β2 immobilised on the chip surface; ratBGO, zfBGO, ratBGO-zfBL or ratBGO-Y248A injected, 2-fold dilution series 500 - 31.3 nM; three consecutive repeats; conditions: not given

pKd	Substance
7.06	ratBGO-zfBL (ratBGO with the shortened binding loop of zfBGO) (from UniProt P26342 31-360) (domain or fragment)
7.07	zebrafish betaglycan orphan domain (zfBGO), wild type (domain or fragment)

biological target: TGF-β2 (growth factor domain, wild type) (human); experiment: SPR; BIAcore T200; TGF-β2 WT or TGF-β2 mutants amine-coupled (EDC-NHS) to a CM4 chip, max 400 RU; zfBGO WT or BGZP-C WT injected, 2-fold dilution series 250 - 15.6 nM; 10 mM CHES, 150 mM NaCl, 3 mM EDTA, 0.01% P20, pH 8.0; 100 µl/min; 1:1 kinetic model with drift; three consecutive repeats; conditions: not given

pKd	Substance
6.83	zebrafish betaglycan orphan domain (zfBGO), wild type (domain or fragment)

biological target: TGF-β2 (Y50A, L51A) (human); experiment: as above; conditions: not given

pKd	Substance
6.69	zebrafish betaglycan orphan domain (zfBGO), wild type (domain or fragment)

biological target: biotinylated TGF-β2 homodimer; experiment: SPR; conditions: surface: TGF-β2; parent: est. 33; read off a plot

pKd	Substance
6.89	zebrafish betaglycan orphan domain (zfBGO) K316A
6.74	zebrafish betaglycan orphan domain (zfBGO) K319A

same assay, conditions: surface: TGF-β2; parent: est. 160; read off a plot

pKd	Substance
6.64	rat betaglycan ZP-C domain (BG_(ZP-C)), mammalian-expressed D88A
5.85	rat betaglycan ZP-C domain (BG_(ZP-C)), mammalian-expressed E130A
7.15	rat betaglycan ZP-C domain (BG_(ZP-C)), mammalian-expressed K86A
6.89	rat betaglycan ZP-C domain (BG_(ZP-C)), mammalian-expressed L143A
6.49	rat betaglycan ZP-C domain (BG_(ZP-C)), mammalian-expressed M164A
6.48	rat betaglycan ZP-C domain (BG_(ZP-C)), mammalian-expressed M165A
6.70	rat betaglycan ZP-C domain (BG_(ZP-C)), mammalian-expressed Q166A
6.54	rat betaglycan ZP-C domain (BG_(ZP-C)), mammalian-expressed S155A
6.14	rat betaglycan ZP-C domain (BG_(ZP-C)), mammalian-expressed W162A
5.89	rat betaglycan ZP-C domain (BG_(ZP-C)), mammalian-expressed W162A; M165A
